Measurements published in publication PMC10645729.

Molecular target: T1, human ribonucleotide reductase large subunit RRM1 (human) (UniProt P23921)
T1 sequence: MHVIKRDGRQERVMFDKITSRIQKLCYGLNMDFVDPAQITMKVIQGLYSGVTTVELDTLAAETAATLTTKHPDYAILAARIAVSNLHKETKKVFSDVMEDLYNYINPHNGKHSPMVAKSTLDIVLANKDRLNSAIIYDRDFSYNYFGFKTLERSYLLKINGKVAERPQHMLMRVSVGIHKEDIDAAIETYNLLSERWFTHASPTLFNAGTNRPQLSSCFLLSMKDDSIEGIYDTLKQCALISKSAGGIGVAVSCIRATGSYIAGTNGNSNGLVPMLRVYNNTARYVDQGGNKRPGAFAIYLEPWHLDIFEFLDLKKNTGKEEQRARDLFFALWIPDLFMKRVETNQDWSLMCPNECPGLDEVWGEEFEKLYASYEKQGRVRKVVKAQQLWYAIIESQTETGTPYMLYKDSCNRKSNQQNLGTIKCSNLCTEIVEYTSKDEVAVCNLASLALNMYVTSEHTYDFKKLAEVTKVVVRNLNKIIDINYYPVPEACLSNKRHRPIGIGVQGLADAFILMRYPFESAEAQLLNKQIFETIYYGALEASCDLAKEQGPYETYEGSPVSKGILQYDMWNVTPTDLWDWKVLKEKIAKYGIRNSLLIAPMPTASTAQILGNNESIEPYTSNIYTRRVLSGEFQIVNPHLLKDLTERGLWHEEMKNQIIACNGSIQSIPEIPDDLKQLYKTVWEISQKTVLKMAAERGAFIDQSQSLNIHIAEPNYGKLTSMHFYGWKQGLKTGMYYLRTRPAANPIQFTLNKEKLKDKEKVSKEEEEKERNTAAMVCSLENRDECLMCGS

Binder | RNR activity of the reconstituted complex (CDP to dCDP, HPLC), percent of wild-type hRRM2B; hRRM1 2 μM, hRRM2B 6 μM (% of wild type)
hRRM2B N221S (enzyme) MGDPERPEAAGLDQDERSSSDTNESEIKSNEEPLLRKSSRRFVIFPIQYPDIWKMYKQAQASFWTAEEVDLSKDLPHWNKLKADEKYFISHILAFFAASDGIVNENLVERFSQEVQVPEARCFYGFQILIENVHSEMYSLLIDTYIRDPKKREFLFNAIETMPYVKKKADWALRWIADRKSTFGERVVAFAAVEGVFFSGSFAAIFWLKKRGLMPGLTFSSELISRDEGLHCDFACLMFQYLVNKPSEERVREIIVDAVKIEQEFLTEALPVGLIGMNCILMKQYIEFVADRLLVELGFSKVFQAENPFDFMENISLEGKTNFFEKRVSEYQRFAVMAETTDNVFTLDADF | 33
hRRM2B F202G (enzyme) MGDPERPEAAGLDQDERSSSDTNESEIKSNEEPLLRKSSRRFVIFPIQYPDIWKMYKQAQASFWTAEEVDLSKDLPHWNKLKADEKYFISHILAFFAASDGIVNENLVERFSQEVQVPEARCFYGFQILIENVHSEMYSLLIDTYIRDPKKREFLFNAIETMPYVKKKADWALRWIADRKSTFGERVVAFAAVEGVFFSGSGAAIFWLKKRGLMPGLTFSNELISRDEGLHCDFACLMFQYLVNKPSEERVREIIVDAVKIEQEFLTEALPVGLIGMNCILMKQYIEFVADRLLVELGFSKVFQAENPFDFMENISLEGKTNFFEKRVSEYQRFAVMAETTDNVFTLDADF | 21.5
hRRM2B F198G (enzyme) MGDPERPEAAGLDQDERSSSDTNESEIKSNEEPLLRKSSRRFVIFPIQYPDIWKMYKQAQASFWTAEEVDLSKDLPHWNKLKADEKYFISHILAFFAASDGIVNENLVERFSQEVQVPEARCFYGFQILIENVHSEMYSLLIDTYIRDPKKREFLFNAIETMPYVKKKADWALRWIADRKSTFGERVVAFAAVEGVFGSGSFAAIFWLKKRGLMPGLTFSNELISRDEGLHCDFACLMFQYLVNKPSEERVREIIVDAVKIEQEFLTEALPVGLIGMNCILMKQYIEFVADRLLVELGFSKVFQAENPFDFMENISLEGKTNFFEKRVSEYQRFAVMAETTDNVFTLDADF | 19.1
hRRM2B F206G (enzyme) MGDPERPEAAGLDQDERSSSDTNESEIKSNEEPLLRKSSRRFVIFPIQYPDIWKMYKQAQASFWTAEEVDLSKDLPHWNKLKADEKYFISHILAFFAASDGIVNENLVERFSQEVQVPEARCFYGFQILIENVHSEMYSLLIDTYIRDPKKREFLFNAIETMPYVKKKADWALRWIADRKSTFGERVVAFAAVEGVFFSGSFAAIGWLKKRGLMPGLTFSNELISRDEGLHCDFACLMFQYLVNKPSEERVREIIVDAVKIEQEFLTEALPVGLIGMNCILMKQYIEFVADRLLVELGFSKVFQAENPFDFMENISLEGKTNFFEKRVSEYQRFAVMAETTDNVFTLDADF | 11.7
